Results taken from patent publication US20050058645A1 (ZENYTH OPERATIONS, published 2005).

Assays:
mouse IL-13Rα1 = molecular target: T1, mouse IL-13Rα1 (mouse, UniProt O09030 26-340, limits assumed); assay: Western blot
T1 sequence (looked up): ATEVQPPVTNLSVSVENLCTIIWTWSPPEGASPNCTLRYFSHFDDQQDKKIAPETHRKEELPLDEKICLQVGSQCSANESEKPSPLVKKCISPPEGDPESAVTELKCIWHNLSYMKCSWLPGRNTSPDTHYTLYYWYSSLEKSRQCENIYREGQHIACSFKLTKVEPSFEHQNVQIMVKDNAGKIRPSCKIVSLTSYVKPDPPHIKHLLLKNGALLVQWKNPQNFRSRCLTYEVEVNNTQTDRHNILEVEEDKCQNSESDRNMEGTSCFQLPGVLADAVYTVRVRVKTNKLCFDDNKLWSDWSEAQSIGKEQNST

[1] = molecular target: T2, FLAG-tagged IL-13Rα1-gp130 chimeric receptor (human); assay: Western blot of lysates of transfected COS cells after SDS-PAGE, probed with mAb 1D9
T2 construct: Extracellular domain of human IL-13Rα1 fused to transmembrane and cytoplasmic domains of gp130; On 293A12-derived cells (lines 3.1.2, 3.2.4) in the reporter assay; in COS cell lysates in the Western blot; also called IL-13Rα1-gp130 fusion; IL13Rα1/gp130 chimera
T2 chain: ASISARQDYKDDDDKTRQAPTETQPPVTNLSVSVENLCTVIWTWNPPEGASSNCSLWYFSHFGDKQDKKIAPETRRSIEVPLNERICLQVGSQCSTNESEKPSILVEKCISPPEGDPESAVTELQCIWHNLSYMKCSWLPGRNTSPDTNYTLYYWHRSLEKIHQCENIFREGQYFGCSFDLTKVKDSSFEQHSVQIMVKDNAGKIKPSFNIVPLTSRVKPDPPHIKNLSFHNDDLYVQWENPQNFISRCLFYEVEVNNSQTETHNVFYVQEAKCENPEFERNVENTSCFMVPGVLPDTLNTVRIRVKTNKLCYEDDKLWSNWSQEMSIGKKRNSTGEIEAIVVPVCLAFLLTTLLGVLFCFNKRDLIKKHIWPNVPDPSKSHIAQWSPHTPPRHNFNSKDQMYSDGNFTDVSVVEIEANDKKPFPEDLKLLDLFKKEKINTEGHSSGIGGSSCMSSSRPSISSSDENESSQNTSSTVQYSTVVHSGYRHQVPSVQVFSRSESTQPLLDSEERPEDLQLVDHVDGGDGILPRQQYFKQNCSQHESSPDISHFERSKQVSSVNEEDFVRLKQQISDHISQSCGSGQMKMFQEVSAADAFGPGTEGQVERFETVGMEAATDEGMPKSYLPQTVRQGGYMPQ
Text: FIG. 3 is a photographic representation showing transient expression of chimeric receptor constructs in COS cells. COS cells were transfected with pEFBOS encoding FLAG-tagged IL-13Rα1-gp130, FLAG-tagged IL-4Rα-gp130 (two independent clones) or control β-gal. Cell lysates were recovered at 72 hrs and after SDS-PAGE and Western transfer, probed with either an anti-FLAG antibody or the IL-13Rα1-specific mAb 1D9.

[2] = molecular target: T3, chimeric mouse IL-13Rα1-Fc (mouse; human, UniProt O09030 26-340); assay: Biosensor blocking assay: mouse IL-13Rα1-Fc at 2 ug/ml pre-incubated 1 hour with titrated 1D9, then passed over immobilised IL-13
T3 construct: extracellular domain; Bought (R & D Systems); Preformed disulphide-bonded dimer; also called mIL-13Rα1-Fc; chimeric mouse receptor; not shown: Fc portion of human IgG
T3 sequence (looked up): T1 sequence (looked up)
Description: (§1) Initially mouse mAb 1D9 is tested for its ability to inhibit the interaction of the chimeric human and mouse IL-13Rα1-Fc with IL-13 using both an ELISA- and Biosensor-based approach. […] Identical results are obtained with the ELISA-based assay. 1D9 is a potent inhibitor of the chimeric human receptor, compared with a control mAb, but has no effect on the binding of the chimeric mouse receptor to mouse IL-13 (FIG. 6). The Biosensor study incorporated a 1D9 dose-response analysis and a further dose-response analysis was undertaken using the ELISA.

[3] = molecular target: T4, chimeric human IL-13Rα1-Fc (human, UniProt P78552 22-343); assay: Biosensor blocking assay: human IL-13Rα1-Fc at 2 ug/ml pre-incubated 1 hour with titrated 1D9, then passed over immobilised human IL-13 (the blocked ligand)
T4 construct: Bought (R & D Systems); Extracellular domain of IL-13Rα1 fused to Fc of human IgG; Expressed as preformed disulphide-bonded dimer; also called hIL-13Rα1-Fc; chimeric human receptor; not shown: Fc portion of human IgG
T4 sequence: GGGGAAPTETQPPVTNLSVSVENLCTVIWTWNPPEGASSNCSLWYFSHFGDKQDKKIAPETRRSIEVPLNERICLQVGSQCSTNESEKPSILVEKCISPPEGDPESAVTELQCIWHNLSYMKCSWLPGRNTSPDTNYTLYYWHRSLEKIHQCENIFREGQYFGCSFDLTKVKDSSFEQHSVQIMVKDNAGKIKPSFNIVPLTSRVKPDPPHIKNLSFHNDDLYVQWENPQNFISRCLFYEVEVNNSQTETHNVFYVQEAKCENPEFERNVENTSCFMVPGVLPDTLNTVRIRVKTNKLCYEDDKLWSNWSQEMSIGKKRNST
Description: as §1

[4] = molecular target: T4, chimeric human IL-13Rα1-Fc; assay: ELISA; 1D9 dose-response, inhibition of chimeric human IL-13Rα1-Fc binding to plate bound IL-13; ELISA dose-response; inhibition of chimeric human IL-13Rα1-Fc binding to IL-13
Description: as §1

B1: murine monoclonal antibody 1D9 (antibody, IgG1, V domains shown)
VH: EVKLVESGGGLVKPGGSLKLSCAASGFTFSGYGMSWVRQTPEKRLEWVATISGLGGYTYYPDSVKGRFTISRDNAKNTLYLQMSSLRSDDTAFYYCARRFYGDYVGAMDYWGQGTSVTVSS
VL: DILMTQAAFSNPVTLGTSASISCRSSKSLLHSNGITYLYWYLQKPGQSPQLLIYQMSNLASGVPDRFSCSGSGTDFTLSISRVEAEDVGFYYCAQNLELPFTFGSGTKLEIE
notes: Murine hybridoma antibody (ECACC 03032101); also called mAb 1D9; mouse mAb 1D9
B1: no binding (mouse IL-13Rα1); binds [1]; no binding (tested: about 50 µg/ml) [2]. The “IC50 (read off the curve)” value [3] was ~2 µg/mL and the IC50 [4] was ~20 nM.
